Measurements: the Human Domainome abundance scans (Beltran et al. 2025)
± gives the uncertainty stated by the source.

B1: Ras GTPase-activating protein 1, residues 281 to 341; numbered along this chain, P20936 (parent)
chain: RRRVRAILPYTKVPDTDEISFLKGDMFIVHNELEDGWMWVTNLRTDEQGLIVEDLVEEVGR

Variants of: B1
Assay: abundance fitness (aPCA) (normalised: wild type 0, dead -1); higher = more abundant; growth selection in yeast, the domain comes from the species named
Conditions: Homo sapiens

Row | Variant | abundance fitness
1 | A6S | -0.258 ± 0.02
2 | M38W | -0.438 ± 0.065
3 | I7Q | -0.473 ± 0.11
4 | D54I | -0.338 ± 0.045
5 | N42I | -0.893 ± 0.061
6 | W37A | -0.014 ± 0.021
7 | D46H | 0.009 ± 0.028
8 | S20A | -0.669 ± 0.053
9 | R44N | -0.224 ± 0.03
10 | R5A | -0.354 ± 0.037
11 | R5P | -0.919 ± 0.074
12 | V4E | -0.929 ± 0.074
13 | E18K | -0.457 ± 0.11
14 | I28C | -0.07 ± 0.021
15 | D35A | -0.024 ± 0.039
16 | I28L | -0.038 ± 0.022
17 | T16N | -0.605 ± 0.037
18 | G49R | -1.04 ± 0.079
19 | T41I | -0.594 ± 0.038
20 | V59A | -0.027 ± 0.032
21 | G60I | -0.299 ± 0.11
22 | G60A | -0.071 ± 0.12
23 | H30D | -0.122 ± 0.031
24 | R1D | 0.122 ± 0.053

Row | Variant | abundance fitness
25 | G49E | -0.766 ± 0.085
26 | K12P | -0.102 ± 0.037
27 | E57M | -0.346 ± 0.081
28 | V56T | -0.013 ± 0.032
29 | Y10R | -0.27 ± 0.045
30 | N42F | -0.782 ± 0.051
31 | A6L | -0.896 ± 0.029
32 | T11N | -0.026 ± 0.029
33 | V52A | 0.072 ± 0.029
34 | A6N | -0.908 ± 0.032
35 | T16M | -0.87 ± 0.12
36 | L50I | -0.03 ± 0.026
37 | T16W | -0.688 ± 0.061
38 | E18H | -0.452 ± 0.041
39 | D35H | -0.038 ± 0.03
40 | G36C | -0.664 ± 0.035
41 | T41C | -0.425 ± 0.028
42 | P9I | -0.876 ± 0.055
43 | E58Y | -0.305 ± 0.031
44 | M38Y | -0.188 ± 0.028
45 | I28Q | -0.047 ± 0.042
46 | R5G | -0.796 ± 0.045
47 | I7S | -0.236 ± 0.027
48 | F21V | -0.478 ± 0.021

Row | Variant | abundance fitness
49 | H30G | -0.444 ± 0.028
50 | H30A | -0.4 ± 0.033
51 | F27Q | -0.815 ± 0.12
52 | R61F | 0.021 ± 0.043
53 | P14R | -0.132 ± 0.03
54 | R1C | -0.065 ± 0.031
55 | S20Q | -0.828 ± 0.13
56 | H30E | 0.008 ± 0.077
57 | D46L | -0.08 ± 0.026
58 | Q48T | 0.019 ± 0.031
59 | L33S | -0.102 ± 0.025
60 | D15T | -0.213 ± 0.048
61 | G24R | -0.672 ± 0.039
62 | P14N | -0.075 ± 0.03
63 | E18P | -1.04 ± 0.12
64 | R2I | -0.159 ± 0.027
65 | K23G | -0.23 ± 0.025
66 | K23P | -0.048 ± 0.034
67 | R44T | -0.319 ± 0.036
68 | G60F | -0.211 ± 0.07
69 | G24L | -0.885 ± 0.054
70 | H30M | -0.151 ± 0.049
71 | G36H | -0.161 ± 0.034
72 | R3M | -0.158 ± 0.057

Row | Variant | abundance fitness
73 | M38R | -0.505 ± 0.038
74 | W39V | -0.195 ± 0.021
75 | V56C | -0.126 ± 0.028
76 | G49A | -0.926 ± 0.065
77 | D17R | 0.005 ± 0.03
78 | G36Y | -0.874 ± 0.048
79 | N42Y | -0.969 ± 0.057
80 | V4G | -0.901 ± 0.027
81 | M26K | -0.333 ± 0.083
82 | G24I | -0.933 ± 0.061
83 | P14L | -0.188 ± 0.032
84 | W37L | -0.003 ± 0.022
85 | D54V | -0.233 ± 0.037
86 | H30Y | -0.397 ± 0.034
87 | E47S | -0.348 ± 0.026
88 | M38V | -0.305 ± 0.028
89 | K12R | -0.052 ± 0.033
90 | I28D | 0.029 ± 0.022
91 | S20T | -0.171 ± 0.035
92 | R5Y | -0.331 ± 0.03
93 | M26L | -0.026 ± 0.03
94 | Y10Q | -0.422 ± 0.089
95 | T16H | -0.784 ± 0.047
96 | P14I | -0.124 ± 0.029

Row | Variant | abundance fitness
97 | V40R | -0.836 ± 0.048
98 | G60Q | -0.328 ± 0.18
99 | V4P | -0.903 ± 0.045
100 | E58G | -0.156 ± 0.034
101 | R61G | 0.034 ± 0.048
102 | V52M | 0.031 ± 0.072
103 | H30Q | -0.033 ± 0.056
104 | E34Q | 0.074 ± 0.073
105 | D15N | -0.022 ± 0.037
106 | K23R | -0.094 ± 0.022
107 | V4Q | -0.848 ± 0.062
108 | W37H | 0.044 ± 0.022
109 | M38A | -0.396 ± 0.036
110 | R2W | -0.371 ± 0.055
111 | T11S | -0.05 ± 0.024
112 | V29F | -0.913 ± 0.055
113 | D35L | -0.207 ± 0.033
114 | Y10N | -0.35 ± 0.048
115 | D15A | -0.129 ± 0.029
116 | V13Q | 0.025 ± 0.046
117 | V56Y | -0.982 ± 0.062
118 | V52I | 0.022 ± 0.027
119 | E47D | -0.104 ± 0.028
120 | N42M | -0.577 ± 0.098

Row | Variant | abundance fitness
121 | L33E | -0.153 ± 0.065
122 | T11D | 0.016 ± 0.034
123 | G49Q | -1.01 ± 0.12
124 | I7L | -0.066 ± 0.03
125 | I28T | -0.011 ± 0.023
126 | V29C | -0.363 ± 0.029
127 | M26G | -0.416 ± 0.03
128 | T11A | -0.05 ± 0.035
129 | M26I | -0.039 ± 0.031
130 | G60C | -0.081 ± 0.067
131 | L33P | -0.07 ± 0.039
132 | S20E | -0.641 ± 0.08
133 | A6W | -0.953 ± 0.051
134 | T16L | -0.973 ± 0.056
135 | L55W | -0.165 ± 0.041
136 | R1F | 0.06 ± 0.058
137 | L33Q | 0.004 ± 0.05
138 | D54R | 0.133 ± 0.036
139 | S20I | -0.844 ± 0.053
140 | S20V | -0.972 ± 0.057
141 | E18F | -0.498 ± 0.036
142 | W37F | -0.004 ± 0.021
143 | A6F | -0.919 ± 0.03
144 | D35V | -0.392 ± 0.036

Row | Variant | abundance fitness
145 | E58M | -0.326 ± 0.061
146 | G24K | -0.981 ± 0.16
147 | L55K | 0.027 ± 0.051
148 | V13S | -0.015 ± 0.025
149 | L43W | -0.748 ± 0.098
150 | Q48C | -0.043 ± 0.028
151 | M26H | -0.061 ± 0.034
152 | R2Q | -0.172 ± 0.065
153 | E18Q | 0.047 ± 0.089
154 | K12V | -0.788 ± 0.047
155 | Y10H | 0.084 ± 0.045
156 | Q48Y | -0.08 ± 0.027
157 | G36M | -0.928 ± 0.12
158 | R5I | -0.055 ± 0.03
159 | V13I | -0.019 ± 0.029
160 | I19N | -1.03 ± 0.069
161 | E53S | 0.021 ± 0.025
162 | S20G | -0.386 ± 0.028
163 | R5W | -0.531 ± 0.061
164 | R44P | -0.9 ± 0.1
165 | P9G | -0.059 ± 0.03
166 | V29N | -0.823 ± 0.049
167 | Q48K | 0.015 ± 0.054
